Among the data in article PMC10943098 are Ki values, retold here.

This experiment concerns the target PP2A-B55 phosphatase (B55, A and C subunits) of Xenopus egg extracts (Xenopus (endogenous in egg extracts)) (UniProt Q7ZX64). As to the kind of experiment: enzyme inhibition kinetics (dephosphorylation of p-S113-Arpp19); kinase inactivated interphase extracts diluted 1/50 to 1/200; substrate p-S113-Arpp19 120 to 2000 nM; FAM122A 50, 125 and 250 nM or Thio-S71-Arpp19 1, 2 and 3 nM; quantitative western blot; global fit, competitive mode. For orientation: A western blot detects proteins with antibodies after separation by electrophoresis.

“His-Xenopus FAM122A (wildtype) (natural protein)” displayed a Ki of 28.1 nM.
Substance “untagged thio-S71-phosphorylated Arpp19 (natural protein)” came in with a Ki of 0.22 nM.
